These results are taken from patent US11214614B2, “LTBP complex-specific inhibitors of TGFβ and uses thereof” (Scholar Rock, Inc., priority 2019, dated 2022).

Assay [1] deals with huLTBP1 proTGFβ1 (Homo sapiens, UniProt P01137+Q14766). Kind of assay: SPR (Biacore 8K) monovalent binding kinetics of Fabs, biotinylated antigen captured. Details: biotin (complex biotinylated). The following applies: for KD of Fab fragments / Binding of human Fabs for huLTBP1 proTGFβ1 and huLTBP3 proTGFβ1 (FIGS. 23, 24): SPR; for KD of Fab fragments: antigen not given; for Monovalent affinities (FIGS. 23, 24): figure legends. The procedure, abridged: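 Biotinylated proTGFβ1 complexes (10 nM) captured on Biotin CAPture chip; Fabs injected at 10, 5, 2.5, 1.25, 0.625 nM (0 nM reference), 120 s contact, 900 s dissociation, multi-cycle with regeneration. HBS-EP+ pH 7.4; global 1:1 fit for ka, kd, KD.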

Assay [2] deals with phosphorylation of Smad2/3 in kidney of Col4a3−/− mice. The assay can be described thus: Alport (Col4a3−/−) mouse model, pSMAD2/3 ELISA on whole kidney lysates. The format is in vivo. The following applies: single dose 30 mg/kg i.p., 48 hours prior to sacrifice, 11 week old Col4a3−/− mice. An excerpt: The murine Col4a3 −/− model is an established genetic model of autosomal recessive Alport syndrome. Alport mice lack a functional collagen 4A3 gene (Col4A3−/−) and therefore cannot form normal type IV collagen trimers, which require a3, a4, and a5 chains. Col4a3−/− mice develop fibrosis in the kidney consistent with renal fibrosis in human patients, including interstitial fibrosis and tubular atrophy, and Col4a3−/− mice develop end-stage renal disease (ESRD) between 8 and 30 weeks of age, depending on the genetic background of the mouse. The structural and functional manifestation of renal pathology in Col4a3−/− mice, combined with the progression to ESRD make Col4a3−/− mice an ideal model to understand kidney fibrosis. […]
It is well documented that TGFβ receptor activation leads to a downstream signaling cascade of intracellular events, including phosphorylation of Smad2/3. Therefore, the ability of SR-AB42 and SR-AB63 treatment to inhibit TGFβ signaling was assessed in kidney lysate samples by measuring relative phosphorylation levels of Smad2/3 as assayed by ELISA (Cell Signaling Technologies) according to the manufacturer's instructions. […] FIG. 20B is a graph showing the amount of phosphorylated SMAD2/3 (pSMAD2/3) as determined by ELISA and FIG. 20C is a graph showing the amount of total […] (tSMAD2/3) protein as determined by ELISA.

In assay [3] the target is huLRRC33 proTGFβ1 (Homo sapiens, UniProt P01137). Kind of assay: Octet binding of immobilized cycle 2 antibodies. Details: modified human kappa light chain signal peptide (N); Histidine tag (C). The following applies: antibody immobilized (loading sample). The source says: A modified proTGFβ1 complex (proTGFβ1 C4S) in which the cysteine residue at position 4 of the pro-domain has been substituted with a serine residue (described in WO 2014/182676) was used to assess antibody binding to C4S antigen by Octet. Cycle 2 antibodies were immobilized and tested against 3 antigens. As shown in the Tables below, robust antibody binding to LTBP-1 proTGFβ1 antigen (Table 23) and proTGFβ1C4S antigen was observed (Table 24), while binding to LRRC33 proTGFβ1 antigen was not observed (Table 25).
Background: Biolayer interferometry detects binding as a change in optical thickness at a sensor tip.

The subject of assay [4] is proTGFβ1 presented by endogenous LTBP1/3 in LN229 cells. Kind of assay: Endogenous LTBP caga assay: LN229 cells transfected with human proTGFβ1 only, CAGA12 luciferase reporter cells. To be noted: endogenous presenting molecules. The format is cell-based.

Changes are numbered by the printed parent chain.

Sequence of huLTBP1 proTGFβ1 (P01137 30-390): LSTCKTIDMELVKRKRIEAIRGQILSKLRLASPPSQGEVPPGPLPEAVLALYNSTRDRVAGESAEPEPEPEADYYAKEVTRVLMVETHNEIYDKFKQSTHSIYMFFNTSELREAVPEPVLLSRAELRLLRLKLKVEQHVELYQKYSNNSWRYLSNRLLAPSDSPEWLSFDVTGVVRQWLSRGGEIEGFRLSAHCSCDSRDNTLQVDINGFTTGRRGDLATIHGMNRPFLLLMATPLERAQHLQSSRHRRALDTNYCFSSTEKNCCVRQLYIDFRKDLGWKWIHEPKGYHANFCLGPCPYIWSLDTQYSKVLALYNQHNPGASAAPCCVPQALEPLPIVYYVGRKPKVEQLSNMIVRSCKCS
Sequence of huLTBP1 proTGFβ1 (Q14766 347-1721 limits assumed): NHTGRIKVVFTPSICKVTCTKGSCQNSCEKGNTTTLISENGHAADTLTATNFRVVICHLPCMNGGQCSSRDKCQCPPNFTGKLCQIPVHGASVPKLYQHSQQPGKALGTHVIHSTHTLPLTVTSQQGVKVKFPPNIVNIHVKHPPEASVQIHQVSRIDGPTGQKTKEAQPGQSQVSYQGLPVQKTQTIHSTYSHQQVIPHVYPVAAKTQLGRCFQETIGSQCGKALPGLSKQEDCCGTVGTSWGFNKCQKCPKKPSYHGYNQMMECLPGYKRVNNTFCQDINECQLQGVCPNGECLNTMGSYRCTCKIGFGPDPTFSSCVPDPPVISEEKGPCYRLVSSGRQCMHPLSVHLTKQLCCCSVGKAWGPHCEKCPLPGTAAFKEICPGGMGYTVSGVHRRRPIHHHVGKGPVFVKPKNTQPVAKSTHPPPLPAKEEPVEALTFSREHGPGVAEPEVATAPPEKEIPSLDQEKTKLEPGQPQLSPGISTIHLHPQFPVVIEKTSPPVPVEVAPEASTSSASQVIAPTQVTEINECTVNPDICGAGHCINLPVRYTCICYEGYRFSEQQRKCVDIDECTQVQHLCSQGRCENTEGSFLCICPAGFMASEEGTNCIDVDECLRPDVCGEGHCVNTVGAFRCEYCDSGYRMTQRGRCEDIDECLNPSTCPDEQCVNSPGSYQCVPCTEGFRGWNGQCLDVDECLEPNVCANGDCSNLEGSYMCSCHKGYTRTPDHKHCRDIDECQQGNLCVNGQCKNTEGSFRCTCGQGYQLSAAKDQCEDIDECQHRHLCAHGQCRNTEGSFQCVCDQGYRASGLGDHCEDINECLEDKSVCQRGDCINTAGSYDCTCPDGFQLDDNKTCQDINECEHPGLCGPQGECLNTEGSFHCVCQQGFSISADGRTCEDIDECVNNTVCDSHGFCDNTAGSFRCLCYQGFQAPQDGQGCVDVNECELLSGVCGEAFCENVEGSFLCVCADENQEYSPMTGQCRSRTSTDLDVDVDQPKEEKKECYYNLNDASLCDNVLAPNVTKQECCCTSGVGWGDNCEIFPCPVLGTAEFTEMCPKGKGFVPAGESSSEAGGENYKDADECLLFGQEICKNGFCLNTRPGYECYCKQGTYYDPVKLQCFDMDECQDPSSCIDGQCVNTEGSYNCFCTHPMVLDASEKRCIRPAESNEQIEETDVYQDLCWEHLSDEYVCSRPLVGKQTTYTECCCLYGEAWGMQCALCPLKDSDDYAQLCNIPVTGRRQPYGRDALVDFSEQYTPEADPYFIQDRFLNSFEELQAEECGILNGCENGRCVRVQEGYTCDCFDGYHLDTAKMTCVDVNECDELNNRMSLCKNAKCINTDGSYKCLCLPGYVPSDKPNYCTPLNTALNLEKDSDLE
Sequence of proTGFβ1 presented by endogenous LTBP1/3 in LN229 cells (P01137 30-390): as the sequence (P01137 30-390) above
Sequence of huLRRC33 proTGFβ1 (P01137 30-390): as above
Sequence of huLRRC33 proTGFβ1 (Q86YC3 with tags, fused parts or gaps partner limits assumed): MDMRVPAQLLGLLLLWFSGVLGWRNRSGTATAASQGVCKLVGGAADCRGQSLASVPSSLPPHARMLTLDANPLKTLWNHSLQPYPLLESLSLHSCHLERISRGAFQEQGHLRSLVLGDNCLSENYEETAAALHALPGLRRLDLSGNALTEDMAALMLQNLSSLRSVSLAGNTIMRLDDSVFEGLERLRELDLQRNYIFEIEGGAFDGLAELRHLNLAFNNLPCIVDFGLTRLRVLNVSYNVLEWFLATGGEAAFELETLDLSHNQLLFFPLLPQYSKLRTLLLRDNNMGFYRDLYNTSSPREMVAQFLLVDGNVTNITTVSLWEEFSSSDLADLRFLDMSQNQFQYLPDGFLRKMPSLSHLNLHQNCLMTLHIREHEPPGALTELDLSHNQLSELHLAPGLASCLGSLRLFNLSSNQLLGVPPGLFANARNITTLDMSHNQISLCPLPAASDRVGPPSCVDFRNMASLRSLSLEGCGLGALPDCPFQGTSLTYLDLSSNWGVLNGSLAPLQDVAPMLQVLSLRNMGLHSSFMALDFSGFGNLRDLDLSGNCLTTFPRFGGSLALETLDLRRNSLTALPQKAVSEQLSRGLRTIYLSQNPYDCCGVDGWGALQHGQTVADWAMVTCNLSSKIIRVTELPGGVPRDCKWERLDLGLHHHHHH

B1: SR-AB42: cycle 3 antibody, lineage SR-AB23; CDRs SEQ ID NO: 166-171; HCVR SEQ ID NO: 318, LCVR SEQ ID NO: 319 (antibody, V domains shown)
VH: QVQLVESGGGVVQPGRSLRLSCAASGFTFRSYVMHWVRQAPGKGLEWVAVISHEGSLKYYADSVKGRFTISRDNSKNTLYLQMNSLRAEDTAVYYCARPRIAARRGGFGYWGQGTLVTVSS
VL: NFMLTQPHSVSESPGKTVTISCTRSSGNIDNNYVQWYQQRPGSSPTTVIYEDNQRPSGVPDRFSGSIDSSSNSASLTISGLKTEDEADYYCQSYDYDTQGVVFGGGTKLTVL
B1: in assay [1], the “KD of Fab fragments” value is “sub-nanomolar”; the “Binding of human Fabs for huLTBP1 proTGFβ1 and huLTBP3 proTGFβ1 (FIGS. 23, 24)” value is reported as “context-selective binding”; the “Monovalent affinities (FIGS. 23, 24)” value is recorded as “picomolar monovalent affinities”. Moreover, the “pSmad2/3 signaling (pSMAD2/3:tSMAD2/3) in whole kidney lysates” value in assay [2] is reported as “significantly inhibit pSmad2/3 signaling”.

B2: SR-AB23: second-round (CDR-H3 mutagenesis) antibody, lineage SR-AB14; CDRs SEQ ID NO: 116-121 (antibody, V domains shown)
VH: B1 VH
VL: B1 VL with Y96S, T98N
In the case of B2, the “Response, binding to human LRRC33 proTGFb1” value in assay [3] is 0.0233 nm. The “Inhibition of TGFβ1 activation (TGFβ activity, luciferase)” value in assay [4] was “improved potency”.

B3: SR-AB22: second-round (CDR-H3 mutagenesis) antibody, lineage SR-AB14; CDRs SEQ ID NO: 108-113 (antibody, V domains shown)
VH: B1 VH with R98V
VL: B1 VL with Y96S, T98N
For the molecule B3, the “Response, binding to human LRRC33 proTGFb1” value in assay [3] is listed as 0.1329 nm. Moreover, in assay [4], the “Inhibition of TGFβ1 activation (TGFβ activity, luciferase)” value is given as “improved potency”.

B4: SR-AB63: cycle 3 antibody, lineage SR-AB26; CDRs SEQ ID NO: 292-297; HCVR SEQ ID NO: 360, LCVR SEQ ID NO: 361 (antibody, V domains shown)
VH: QLQLQESGPGLVKPSETLSLTCTVSGGSIRSSSYYWGWIRQPPGKGLEWIGSISYSATTYYNPSLKSRVTISVDTSKNQFSLKLSSVTAADTAVYYCAGDPSYDSIAGMQVWGQGTTVTVSS
VL: DIQLTQSPSSLSASVGDRVTITCRASQSISSYLNWYQQKPGKAPKLLIYAASNLQSGVPSRFSGSGSGTDFTLTISSLQPEDFATYYCQQSFDWPLTFGGGTKVEIK
For the molecule B4, in assay [1], the “KD of Fab fragments” value is on record as “sub-nanomolar”; the “Binding of human Fabs for huLTBP1 proTGFβ1 and huLTBP3 proTGFβ1 (FIGS. 23, 24)” value is given as “context-selective binding”; the “Monovalent affinities (FIGS. 23, 24)” value is “picomolar monovalent affinities”. The “pSmad2/3 signaling (pSMAD2/3:tSMAD2/3) in whole kidney lysates” value in assay [2] is “significantly inhibit pSmad2/3 signaling”.
